Tested on: Stf76 (Sulfolobus islandicus plasmid-virus pSSVx)
Assay: ITC
Details: EMSA: 20 mM Tris-acetate pH 8.0, 50 mM K acetate, 10 mM Mg acetate, 1 mM DTT, 5% glycerol, 1 ug salmon sperm DNA, 50 C protein pre-incubation, binding 37 C …

Sequence: GGAAACAGTATTAATAAAGTGTTAATCCTATTACCC (double strand) [probe A' (35 bp-site A)]
- Kd: 40 nM

From PMC4027180
